Reference: US12611470B2, “Chromatin-opening element for stable long term gene expression” (CZ Biohub SF, LLC, priority 2019, dated 2026)

Tested on: P19 cells
Assay: Lentiviral transduction silencing experiment, UCOE linked to CMV, EF1α, RSV or PGK promoter driving GFP
Assay type: cell-based, mouse
From the text: The graphs show the raw data of measured percent GFP positive cells (% GFP+) for each construct over time. Transduced populations were sorted into triplicate wells using FACS at day 0 (5 days after lentiviral transductions) to begin the study at 100% GFP positive cells. Expression is lost quickly within the first 10 days, and then stabilizes around day 15. Data is reported as mean±SD from biological triplicates. Two positive UCOE controls (A2UCOE, 3′UCOE) and a negative control (no insulator region) were used.
Percent GFP positive cells at the final timepoint (day 26 for CMV and RSV, day 27 for PGK and EF1α) of the lentivirus silencing experiment across the four tested promoters is plotted. P19 cells were FACS-sorted five days after transduction (day 0) and then assayed over a 26 or 27-day time period thereafter. Data is reported as mean±SD from three biological replicates.
Two plasmids (pCS3800: encoding HIV-1 Gag; pCS380: encoding VSVg envelope protein) were used with varying versions of the donor plasmid pCS3799. HEK293T cells were plated at 5×10^6 cells in a 10 cm dish. Twenty-four hours after plating, the three plasmids (10 μg donor, 8 μg pCS3800, 10 μg pCS3801) were co-transfected together using a calcium phosphate protocol (Zufferey, R. T. and Trono, D. (2001) Current Protocols in Human Genetics, 26 (1), 12.10.1-12.10.12; DOI: 10.1002/0471142905.hg1210s26 (55)). The total DNA was brought to 500 μL in water, to which 500 μL of 2×HEPES-buffered saline, pH7.0 (Alfa Aesar) was added and mixed. One-tenth of the total volume (100 μL) of 2.5 M calcium chloride (Sigma-Aldrich) was then added to the mixture, followed by a 20-minute incubation. The mixture was then added to the plate in a dropwise manner. Media was replaced six hours later, and the supernatant was collected at 48 hr after the transfection, filtered through 0.4 μm filter, and frozen at −80° C. in 1 mL aliquots. Lentiviral aliquots were thawed in a 37° C. bead bath before transductions.
P19 cells were plated at 20-30,000 cells/well in 12-well plates one day before transduction. Twenty-four hours after plating, cells were transduced at varying dilutions of the lentiviral stock (ranging from 1:2 to 1:100) in DMEM+10% FBS with 8 μg/mL polybrene (Santa Cruz Biotechnologies). Media was refreshed on P19 cells 24 hours after transduction, and cells were passaged and assayed through a MACSQuant® VYB flow cytometer (Miltenyi Biotec) 48 h after transduction. MOI was determined by reporter expression at this timepoint using the following formula: MOI=ln (1/1-p) where p is the % of cells that are GFP positive at 48 hours post-transduction (Chen, S. et al. (2015) Cell, 160, 1246-1260 (56)).
Cells were FACS-sorted on the BD Influx™ cell sorter at the Stanford FACS Facility using the 488-nm laser and 525/40 filter to assay GFP expression. After gating for singlets and viability, GFP+ gate was drawn to be <0.1% GFP positive in non-transduced P19 cells. GFP+ gates were re-drawn for each promoter set to avoid the ˜10% highest and lowest expressing cells within the GFP+ gate, but the same gate was used for every experimental condition under the same promoter. Triplicate wells of each population (12-15,000 cells/well in a 24-well plate) were collected.
Fluorescence data throughout silencing experiments was obtained using a MACSQuant® VYB flow cytometer (Miltenyi Biotec). EGFP was measured through the 488-nm laser and 525/50 nm band pass filter. Flow cytometry data was analyzed using the FlowJo™ single cell flow cytometry analysis software (Tree Star). After being gated for singlets and viability, GFP+ gates in FlowJo were drawn such that a non-transfected or non-transduced P19 cell population was at 1% GFP+. Median values reported are of cells within the GFP+ gate, both % GFP positive and median are reported with the standard deviation of biological replicates. […]

B1: Candidate 6: Full length SRF-UCOE, SEQ ID NO:1; region between human SURF1 and SURF2 including first introns, chr9 (nucleic acid, listed as Homo sapiens)
DNA: GCACACGACCACAATTCCACTGAAAGCATTTTAATACGGAACTTGTCACTCCCAGGGAGCCTCCGCTCAGCCGGCAGTTGGTTCATTTCAATCCCCACGACAACCCTTCAAAGTGCAGGGCAGACAGCAGGTGGCTCTGCCCAGGCGCCTGGATCACAGCCCGGCCTGCAGCCCTCACCTGGGCGCGGGGAGACCCTGAGGACGCTCCTCCAGGCGGCGCTGGCCGGGGCCTGCGGACACGGACGGGCGGGCTGAGCTCCGGGACCCCTCCCCGCGCCCCGCACCCCGCACCCCGCACCCCGCACCCCGCACCCGGCGCTCACCCGTCCCAGCCCCGCCGCCCGCAGCCCCAGCTGCAACGCAGCCACCGCCGCCATCGCACCCGGCCCCGCGGGCGCTTCCGGGACGCAGGAGGCATCTGCATCCGGGGCGCCGCTGAGTCCCGCCCAGAGCCCCGCCCCCGGCTCCAGGTTCTGCGAGCGGCTTCCGCCGGGCTGCTCCGCGGGCGCGTCGGCCATGAGCGAGTTGCCGGGCGACGTGCGGGCGTTTCTGCGGGAGCACCCGAGCCTGCGGCTCCAGACGGACGCCCGCAAGGTTCGCAGCGCGGGAGGGGAACGGAGTGGCGGAGAAGGGCGCAGTTGGGATGAGGGGCTGAGGGGAGGGCAGGGGAGAGGAGAGGGCAGGGGAGAGGGGAGAGGGGAGAGCAGGAGAGAGGGGAAGGCAGGGGAGAGGGCGCGGCGGGATCAGGGGAGGAGAGGGAAGGGGGCGCGGCAGGAGGGGGCACCAGGGAGCGGAGCCCTGGCCCTCCTGACGTCCTGCCCGCCCACGCGTCCGCAGGTGAGGTGCATCCTGACAGGTCACGAGCTGCCCTGCCGCCTGCCGGAGCTCCAGGTCTACACCCGCGGCAAAAAGTACCAGCGGCTGGTCCGCGCCTCCCCGGCCTTCGACTATGCAGAGTTCGAGCCGCACATCGTGCCCAGCACCAAGAACCCGTAGGTGGTC
Ef1α promoter, final timepoint
  GFP positive cells / expression compared to the negative control: 2.7 times
PGK promoter, day 27
  % GFP+ cells at final timepoint: 29%
  expressing cells / improvement over the negative control: 5 fold
RSV promoter, day 26
  % GFP+ cells at final timepoint: 76%
  % GFP+ cells, representative example (one biological replicate): 79.6%
